This is an account of results in article PMC8971466.

A short description of this series: SEC; SE-HPLC, TSK-gel SuperSW3000; 0.1 M phosphate, 0.1 M potassium sulfate pH 6.7; scFv at 0.1 mg/mL, 25 °C, 0.3 mL/min; monomer and dimer peaks told by molecular weight standards, percentages from peak areas. (In general: SEC sorts molecules by how far they enter the pores of the column.)

Take “L1, anti-VEGF scFv derived from bevacizumab with non-repetitive linker”: the Monomer/dimer ratio (monomer %) was found to be 95.7%.
